Consider ten molecules from US20170072062A1 (published 2017).

Experiment [1] has as its target type V tartrate-resistant acid phosphatase (TRAP) protein, immobilised on CM5 sensor chip. In words: SPR, TRAP on CM5 chip; upper end of a range told of the peptide-functionalized polymers.
Experiment [2] shares this target. The experiment is described as follows: SPR, TRAP on CM5 chip, binding curve fit (n = 2, Ave. ± StDev).
Experiment [3] shares this target. In words: SPR, TRAP on CM5 chip, initial rate analysis of sensorgrams. A general note: In SPR one partner is held on a chip, and binding of the other changes the refractive index at the surface.
Experiment [4] shares this target. The experiment is described as follows: SPR, TRAP on CM5 chip; lower end of a range told of the peptide-functionalized polymers.
Experiment [5] addresses T1, TRAP deposited by previous osteoclast activity on human cortical bone wafers (human, UniProt P13686 22-325, limits assumed).
T1 construct: The target is TRAP on a bone surface, not purified protein; The species follows from the human donor bone; also called bone resorption pits
T1 sequence (looked up): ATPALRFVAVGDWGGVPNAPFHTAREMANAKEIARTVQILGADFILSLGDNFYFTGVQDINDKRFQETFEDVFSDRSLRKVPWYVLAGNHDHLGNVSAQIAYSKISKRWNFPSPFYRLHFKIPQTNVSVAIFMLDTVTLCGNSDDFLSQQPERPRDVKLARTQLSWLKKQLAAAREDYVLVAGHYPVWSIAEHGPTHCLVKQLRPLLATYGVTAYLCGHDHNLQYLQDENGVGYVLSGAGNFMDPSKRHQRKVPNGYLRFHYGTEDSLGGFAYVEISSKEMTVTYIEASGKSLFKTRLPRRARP
In words: confocal imaging of fluorescent peptide on human cortical bone wafers decorated with TRAP. As for the experimental part:
Equal concentrations of fluorescently labeled TBP and SCP are prepared in 1× phosphate-buffered saline (PBS). Bone wafers are cut from cortical bone obtained from the femur of a human donor cadaver and incubated in peptide solutions overnight, washed twice with 1×PBS, and then visualized via confocal imaging. Stacked sections are compressed into 2D images to allow for qualitative analysis as in FIG. 3A through FIG. 3D.

Experiment [6] concerns the target type V tartrate-resistant acid phosphatase (TRAP) protein, immobilised on CM5 sensor chip. In words: SPR, TRAP on CM5 chip, binding curve fit.
The target is the same in experiment [7]. The experiment is described as follows: SPR, TRAP on CM5 chip, steady-state response vs concentration fit.

Ends that are not written are not given here. * marks the point of attachment. Methacryloyl = C=C(C)C(=O)*

Usually Kd stands for a measure of binding affinity in units of concentration. A high value points to lower affinity. For Methacryloyl-TPLSYLKGLVTVG (also: RAFT copolymer with PEG monomethyl ether methacrylate, multivalent) [5% peptide monomer TBP-functionalized PEG polymer (Table 1, Mn 103900 Da)], the values for the equilibrium dissociation constant (Kd) in experiment [1] and in experiment [2] were 7.1 to 21 µM and 21.7 µM, respectively.

B1: 10% TBP-functionalized polymer (pTBP), M:CTA:I 300:1:0.1, Mn 40.1 kDa (Table 4) (peptide)
peptide: Methacryloyl-TPLSYLKGLVTVG
modifications: not fully specified; also: RAFT copolymer with PEG methyl ether methacrylate, about 9 peptides per chain
Consider B1, for which the Kd in experiment [3] was 60 µM.

In experiment [2], Methacryloyl-TPLSYLKGLVTVG (also: RAFT copolymer with PEG monomethyl ether methacrylate, multivalent) [10% peptide monomer TBP-functionalized PEG polymer (Table 1, Mn 69000 Da)] yielded a dissociation constant (Kd) of 12.7 µM.

B2: 5% TBP-functionalized PEG polymer, M:CTA:I 250:1:0.1, Mn 42.3 kDa (Table 4) (peptide)
peptide: Methacryloyl-TPLSYLKGLVTVG
modifications: not fully specified; also: RAFT copolymer with PEG methyl ether methacrylate, about 5 peptides per chain
B2 displayed a Kd in experiment [3] of 80 µM.

B3: 5% TBP-functionalized PEG polymer, M:CTA:I 600:1:0.1, Mn 98.2 kDa (Table 4) (peptide)
peptide: Methacryloyl-TPLSYLKGLVTVG
modifications: not fully specified; also: RAFT copolymer with PEG methyl ether methacrylate, about 11 peptides per chain
B3 yielded a dissociation constant (Kd) in experiment [3] of 140 µM.

With Methacryloyl-TPLSYLKGLVTVG (also: RAFT copolymer with PEG monomethyl ether methacrylate, multivalent) [20% peptide monomer TBP-functionalized PEG polymer (Table 1, Mn 26700 Da)], the Kd in experiment [4] was 7.1 to 21 µM; in experiment [2], 7.5 µM.

B4: 20% TBP-functionalized PEG polymer, M:CTA:I 500:1:0.1, Mn 32.7 kDa (Table 4) (peptide)
peptide: Methacryloyl-TPLSYLKGLVTVG
modifications: not fully specified; also: RAFT copolymer with PEG methyl ether methacrylate, about 12 peptides per chain
In the case of B4, the Kd in experiment [3] worked out at 70 µM.

B5: 5% TBP-functionalized PEG polymer, M:CTA:I 125:1:0.1, Mn 17.1 kDa (Table 4) (peptide)
peptide: Methacryloyl-TPLSYLKGLVTVG
modifications: not fully specified; also: RAFT copolymer with PEG methyl ether methacrylate, about 3 peptides per chain
In the case of B5, the dissociation constant (Kd) in experiment [3] was 70 µM.

B6: fluorescently labeled scrambled control peptide (SCP) (peptide)
peptide: VPVGTLSYLKLTG
modifications: also: fluorescent cadaverine coupled, site not given here
notes: also called fluorescently labeled SCP; Control (SCP)
As to B6, the binding result in experiment [5] is listed as “no binding”.

TPLSYLKGLVTVG [TRAP-binding peptide (TBP)]: the Kd in experiment [2] amounted to 795 µM; in experiment [6], 700 µM; in experiment [7], 200 µM.
